Measurements taken from the DeepSol protein solubility set.

Test: soluble on expression in E. coli; label from the status in PepcDB or PDB records

Which “soluble on expression in E. coli” value does the source give for “MVIMSSTFMGYERENGRIGTRNHVLIIPVDDLSNTVAAAVENNIFGTRAILHPYGRLQFGADLDLTFRTLAGYGRNPNVASAIVVGIEDNWTNRIADQISQTGKHVETVSIEGSGDLKAIEKASRLAKEMAQESSTKTRKEFDVSNLIVSTKCGESDTTSGLASNPTVGVVFDRLVDEGATVIFGETSELTGAEKYIAEKMANNELKDKFMKIFNDYQDVIKSQGVDLLGSQPTEGNIKGGLSTIEEKALGNIQKAGTKKITGVLDYAEEPKSKGLNFMNTSSAAAEAVTLFAAAGAVVHLFTTGQGNIVGNHILPVIKTTANPKTAKNMAEHIDLDLSGLLKFEYTLKDAGDKLYNLLLETASGKLTSNEVLKHYEFALTKLYISA” here?
The value was “not soluble”.

Which “soluble on expression in E. coli” value does the source give for “MVKATNVDLSLEDIISKTRKTTGSIQKKSFGGARRGNTRPTGLPRRSGGSGGWKDLDAVQNHGISSRGNDSKVIRVNISNLAPTVISSDLEELFGDYRLSSVSVNFNEHGDSLGTGDISLTKRDAERLVQKFSGVALDGKIMKFAVIDSSNMAGRVDFGNRSRSSPGRSSRGFQSGPRRNNGKPEDFLRDGVHAGDIKRGGAGRGGFRKGGRGGARDAKPKKTEAELDAELEAYMAKRNA” here?
The value was “soluble”.

With “MVKETKLYDLLGVSPSANEQELKKGYRKAALKYHPDKPTGDTEKFKEISEAFEILNDPQKREIYDQYGLEAARSGGPSFGPGGPGGAGGAGGFPGGAGGFSGGHAFSNEDAFNIFSQFFGGSSPFGGADDSGFSFSSYPSGGGAGMGGMPGGMGGMHGGMGGMPGGFRSASSSPTYPEEETVQVNLPVSLEDLFVGKKKSFKIGRKGPHGASEKTQIDIQLKPGWKAGTKITYKNQGDYNPQTGRRKTLQFVIQEKSHPNFKRDGDDLIYTLPLSFKESLLGFSKTIQTIDGRTLPLSRVQPVQPSQTSTYPGQGMPTPKNPSQRGNLIVKYKVDYPISLNDAQKRAIDENF” as the sequence, how does the “soluble on expression in E. coli” value read?
Its value is “not soluble”.

Which “soluble on expression in E. coli” value does the source give for “MVKLAEFSRTATFAWSHDKIPLLVSGTVSGTVDANFSTDSSLELWSLLAADSEKPIASLQVDSKFNDLDWSHNNKIIAGALDNGSLELYSTNEANNAINSMARFSNHSSSVKTVKFNAKQDNVLASGGNNGEIFIWDMNKCTESPSNYTPLTPGQSMSSVDEVISLAWNQSLAHVFASAGSSNFASIWDLKAKKEVIHLSYTSPNSGIKQQLSVVEWHPKNSTRVATATGSDNDPSILIWDLRNANTPLQTLNQGHQKGILSLDWCHQDEHLLLSSGRDNTVLLWNPESAEQLSQFPARGNWCFKTKFAPEAPDLFACASFDNKIEVQTLQNLTNTLDEQETETKQQESETDFWNNVSREESKEKPSVFHLQAPTWYGEPSPAAHWAFGGKLVQITPDGKGVSITNPKISG” here?
Its value is “soluble”.

Which “soluble on expression in E. coli” value does the source give for “MVKLENSRKPEKISNKNIPMSDFVVNLDHGDPTAYEEYWRKMGDRCTVTIRGCDLMSYFSDMTNLCWFLEPELEDAIKDLHGVVGNAATEDRYIVVGTGSTQLCQAAVHALSSLARSQPVSVVAAAPFYSTYVEETTYVRSGMYKWEGDAWGFDKKGPYIELVTSPNNPDGTIRETVVNRPDDDEAKVIHDFAYYWPHYTPITRRQDHDIMLFTFSKITGHAGSRIGWALVKDKEVAKKMVEYIIVNSIGVSKESQVRTAKILNVLKETCKSESESENFFKYGREMMKNRWEKLREVVKESDAFTLPKYPEAFCNYFGKSLESYPAFAWLGTKEETDLVSELRRHKVMSRAGERCGSDKKHVRVSMLSREDVFNVFLERLANMKLIKSIDL” here?
Its value is “soluble”.

For “MVKSQPILRYILRGIPAIAVAVLLSACSTTTNTAKNMHSETHAVGNSDSSSLQASQDEFENMVRNLDVKSRIMDQYADWKGVRYRLGGSTKKGVDCSSFVQRTFREQFGLELPRSTYEQQEMGKAVSRNNLRTGDLVLFRAGSTGRHVGIYIGNNQFVHASTSSGVIISSMNEPYWKKRYNEARRVLSRS”, which “soluble on expression in E. coli” value is on record?
Its value is “not soluble”.

For “MVKVTAACIIIGDEVLNGKVVDTNSTFFAKYCFDHGIQLKEIATIGDDETQIVDTVRRLVKNYDFIISTGGIGPTHDDITYECMAKSFNLPCELDEECKERMRHKSDPEARLDADALKAHYQMATMPKGTNVKNYYVCDDLWVPICSISHKMYILPGIPQLFARMLKAFTPTLKKIYNLDKDPREYVRYFVRTHLTESQISKELKLIQDESTKVSEAIKIGSYPHFGMGFNTVSILGEKKDDSYLKSIVNRVVNNLEGEVISSELENKFSNQES”, which “soluble on expression in E. coli” value is on record?
The value was “not soluble”.

With “MVLETTSSRDGEIKLTVDQMLGKLARWIRLMGYDVYYPSGTVPDDEIITKSRSEGRIIITRDYGMYQKYPMSIFEPYDDINDQLRDFIAHFSSRMKDRFMRCPVCNGRLVKLRSKIPEYLRNHRDVYICTGCHKMYWKGSHYRRIYRKIENLRPKGE” as the sequence, how does the “soluble on expression in E. coli” value read?
The value was “soluble”.

With “MVLKRKGLLIILDGLGDRPIKELNGLTPLEYANTPNMDKLAEIGILGQQDPIKPGQPAGSDTAHLSIFGYDPYETYRGRGFFEALGVGLDLSKDDLAFRVNFATLENGIITDRRAGRISTEEAHELARAIQEEVDIGVDFIFKGATGHRAVLVLKGMSRGYKVGDNDPHEAGKPPLKFSYEDEDSKKVAEILEEFVKKAQEVLEKHPINERRRKEGKPIANYLLIRGAGTYPNIPMKFTEQWKVKAAGVIAVALVKGVARAVGFDVYTPEGATGEYNTNEMAKAKKAVELLKDYDFVFLHFKPTDAAGHDNKPKLKAELIERADRMIGYILDHVDLEEVVIAITGDHSTPCEVMNHSGDPVPLLIAGGGVRTDDTKRFGEREAMKGGLGRIRGHDIVPIMMDLMNRSEKFGA” as the sequence, how does the “soluble on expression in E. coli” value read?
Its value is “soluble”.

Which “soluble on expression in E. coli” value does the source give for “MVLTLDLADPAQPEHVFIVEDSRGATELKLYKSHYTIGKADSCDIRLHSIYASRQHATLVRFLTENGEVRYRLIDGDPETSRRSANGTYVNNRSITECDLKHYDQILFGALEHHHHHH” here?
Its value is “not soluble”.

For “MVMNQKNLFTRSALAAAIALISSNVSAAGFQLNEYSAAALGRAFSGEGAVADNASVGSRNPAAMTLFDRPSFSGGVIYIDPSVDITGTSPSGKSTDASNIAPSAWVPNLHFIMPLDEQWAIGASATSNYGLATEFNDDYVAGMLGGQTDLKTANLNLSAAYRLNDNFSFGLGFDAVYADAKIVRHLGEAGGGLLPANTEAARLEGTKWGYGWNTGILYEIDKENRYSFTYRSEVNIDFDGDYSNQLPVIFGGLGGKTVPGSLTLNLPAVWEVSGYNKVAPQWAIHYSMAYTTWSSFKELKATASNGDVLFDKHEGFRDAYRIALGTTYYYDDNWTFRTGIAFDDSPIPAGNRSISIPDQDRFWLSAGTTYAFNKNASVDVGIAYMKGQNVSITEKTPAPSNTTYEFNSKGSAMLYGVNFNYTF”, which “soluble on expression in E. coli” value is on record?
Its value is “not soluble”.

For “MVMRYSLKQLAVFDAVATTGSVSQAAELLSLTQSATSMSLSQLEKMLGRSLFERHGKRMALTHWGVWLRPKAKKLIHDAQQIELGFYDQHLISGEISLGASQTAAEHLVPNLISNIDNDFPEIRISLGVKNTSGIIEGVLDYKYELGIIEGRCDDSRIHQEVFCTDHLIIVAAAHHPFAKHEKVSLAQLEQAKWVLREHGAGTRTIFDSAIHGKIPDLDVWREYEYVPVLRTLVANGQYLSCLPYLDVVKYIERGELVALNVPELNMERTLSFIWRSSMDQNPISDCIRREGIRMIKNHNVIR”, which “soluble on expression in E. coli” value is on record?
Its value is “not soluble”.

With “MVNFKDKSMPTAIEKALDFIGGMNTSASVPHSMDESTAKGILKYLHDLGVPVSPEVVVARGEQEGWNPEFTKKVAGWAEKVASGNRILIKNPEYFSTYMQEQLKELVLEHHHHHH” as the sequence, how does the “soluble on expression in E. coli” value read?
Its value is “soluble”.

For “MVNQQEEINLSVALVTRNRPDSLERCLKSLRDQKVQPFEVVVSDDSDDLYKSSTKEIAQKWGCRYIDGPKRGLYANRNYVALACYGTHIRTMDDDHEFPEQHIEVCLNAIQSDPSSIWIIGEYSPTSSIENAPHPCPGQLHPRGFSFYPKDTQNCWAIADGASIYPKKIFASGLRFVEYYKFGASYLEWGSRLYYLSYRIRHLDSTYIIHHFNPKARSFSDQEMDQSSRFFAMLCHSFLYQSTFKNKCLFSYEILKQFILDPKLTIKCIINSWSNFELFSRSFCALEHHHHHH”, which “soluble on expression in E. coli” value is on record?
Its value is “not soluble”.

For “MVPRTEIVAIEYGTPIEELKARFIESGISKIIVYKENIDNIIGYIHSSEMFREQTDWTKSVRQLPIAPETMGAHKLMKLFMQQKKSLAVVVDEFGGTSGIVALEDLVEEIFGEIEDEHDTTSYIA”, which “soluble on expression in E. coli” value is on record?
Its value is “not soluble”.

Which “soluble on expression in E. coli” value does the source give for “MVPSTFSRLKAARCLPVVLAALIFVGCGTHTPDQSTAYMQGTAQADSAFYLQQMQQSSDDTRINWQLLAIRALVKEGKTGQAVELFNQLPQELNDSQRREKTLLAVEIKLAQKDFAGAQNLLAKITPADLEQNQQARYWQAKIDASQGRPSIDLLRALIAQEPLLGAKEKQQNIDATWQALSSMTQEQANTLVINADENILQGWLDLQRVWFDNRNDPDMMKAGIADWQKRYPNNPGAKMLPTQLVNVKAFKPASTNKIALLLPLNGQAAVFGRTIQQGFEAAKNIGTQPVAAQVAAAPAADVAEQPQPQTADGVASPAQASVSDLTGDQPAAQPVPVSAPATSTAAVSAPANPSAELKIYDTSSQPLSQILSQVQQDGASIVVGPLLKNNVEELLKSNTPLNVLALNQPENIENRVNICYFALSPEDEARDAARHIRDQGKQAPLVLIPRSSLGDRVANAFAQEWQKLGGGTVLQQKFGSTSELRAGVNGGSGIALTGTPITPRATTDSGMTTNNPTLQTTPTDDQFTNNGGRVDAVYIVATPGEIAFIKPMIAMRNGSQSGATLYASSRSAQGTAGPDFRLEMEGLQYSEIPMLAGGNLPLMQQALSAVNNDYSLARMYAMGVDAWSLANHFSQMRQVQGFEINGNTGSLTANPDCVINRKLSWLQYQQGQVVPAS” here?
Its value is “soluble”.

For “MVQEQMKLTGTLEGHTGWVTQIATYTRNDKTTVLSSSRDKTILVWDVDSVAPVDEGPIGRPVRSLTGHNHFVSDVVISSDGQFALSGSWDKTLRLWDLNQGVSTRQFISHTKDVLSVAFSADNRQIVSGSRDKSIKLWNTLAQCKYTITDDCHTDWVSTVRFSPSNRDPVIVSAGWDKVVKVWNLGNCRLKTNHIGHTGYVNTVTVSPDGSLCASGGKDGQAMLWDLNEGKHLYTLPGNDVINAMSFSPNRYWLCAAVGSSIKIWDLEDKKEIEELKPEIASSGSSRGSSPQCISLAWSQDGQTLFAGYTDNIIRVYQVSIRASN”, which “soluble on expression in E. coli” value is on record?
The value was “not soluble”.

For “MVRPRTIDRERLLDIAESIISEAGAVTISFGGLAEAAGLSKASVQSVFGTREAMMEALLERWLRKEQRAYQKKIGPQSSLRERVRRHVKITGKESSEANSRLAAVLTALVGSDATEGVMAKWYASRVGKFSAETQEERLLRIAFLAAEGAFFMRHVAGFPMSDRLWRELFHDLLDFVAEPVGGAARSAA”, which “soluble on expression in E. coli” value is on record?
The value was “not soluble”.

For “MVRVDVEERFNRIARNTVEIVTEEELKGLLASGARIKGYIGYEPSGVAHIGWLVWMYKVKDLVEAGVDFSVLEATWHAYINDKLGGDMDLIRAAARIVRRVMEAAGVPVERVRFVDAEELASDKDYWGLVIRVAKRASLARVRRALTIMGRRAEEAEVDASKLIYPLMQVSDIFYMDLDIALGGMDQRKAHMLARDVAEKLGRKKPVAIHTPIISSLQGPGRMEASQGEIDDVLAEVKMSKSKPETAVFVVDSDDDIRRKIRKAYCPAKQVQGNPVLEIARYILFARDGFTLRVDRPAKYGGPVEYTSYEELERDYTDGRLHPLDLKNAVAESLIEVVRPIRGAVLGDPAMKRALEAIEGKVTR”, which “soluble on expression in E. coli” value is on record?
The value was “soluble”.

With “MVSAPSIDTPSATTFDFDSSVFKKEKVTLSGHDEYIVRGGRNLFPLLPDAFKGIKQIGVIGWGSQAPAQAQNLKDSLTEAKSDVVVKIGLRKGSNSFAEARAAGFSEENGTLGDMWETISGSDLVLLLISDSAQADNYEKVFSHMKPNSILGLSHGFLLGHLQSLGQDFPKNISVIAVCPKGMGPSVRRLYVQGKEVNGAGINSSFAVHQDVDGRATDVALGWSIALGSPFTFATTLEQEYKSDIFGERGILLGAVHGIVECLFRRYTESGMSEDLAYKNTVECITGVISKTISTKGMLALYNSLSEEGKKDFQAAYSASYYPSMDILYECYEDVASGSEIRSVVLAGRRFYEKEGLPAFPMGKIDQTRMWKVGEKVRSVRPAGDLGPLYPFTAGVYVALMMAQIEILRKKGHSYSEIINESVIEAVDSLNPFMHARGVSFMVDNCSTTARLGSRKWAPRFDYILSQQALVAVDNGAPINQDLISNFLSDPVHEAIGVCAQLRPSVDISVTADADFVRPELRQA” as the sequence, how does the “soluble on expression in E. coli” value read?
Its value is “soluble”.
